Laboratory results reported in patent publication US20210206865A1 (Regeneron, published 2021).
Positions count from the first letter of the chain named.

T1: human BCMA on the surface of cell lines (NCI-H929, MM.1S, OPM-2, RPMI-8226, Daudi, Raji, MOLP-8, U266) (human, UniProt Q02223 1-184)
T1 construct: Endogenous BCMA of human myeloma and lymphoma cell lines; also called TNFRSF17; CD269
T1 sequence: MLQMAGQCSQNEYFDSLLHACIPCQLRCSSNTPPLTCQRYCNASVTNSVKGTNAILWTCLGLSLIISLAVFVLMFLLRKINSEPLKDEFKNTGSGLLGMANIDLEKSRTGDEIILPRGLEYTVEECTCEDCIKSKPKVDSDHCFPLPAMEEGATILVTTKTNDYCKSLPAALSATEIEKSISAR

B1: bsAb25441D bispecific antibody (REGN5458), anti-BCMA x anti-CD3 (bispecific antibody, human IgG4 S228P, kappa)
heavy 1: EVQLVESGGGLVQPGGSLRLSCAASGFTFSNFWMTWVRQAPGKGLEWVANMNQDGSEKYYVDSVKGRFTISRDNAKSSLYLQMNSLRAEDTAVYYCARDREYCISTSCYDDFDYWGQGTLVTVSSASTKGPSVFPLAPCSRSTSESTAALGCLVKDYFPEPVTVSWNSGALTSGVHTFPAVLQSSGLYSLSSVVTVPSSSLGTKTYTCNVDHKPSNTKVDKRVESKYGPPCPPCPAPPVAGPSVFLFPPKPKDTLMISRTPEVTCVVVDVSQEDPEVQFNWYVDGVEVHNAKTKPREEQFNSTYRVVSVLTVLHQDWLNGKEYKCKVSNKGLPSSIEKTISKAKGQPREPQVYTLPPSQEEMTKNQVSLTCLVKGFYPSDIAVEWESNGQPENNYKTTPPVLDSDGSFFLYSRLTVDKSRWQEGNVFSCSVMHEALHNHYTQKSLSLSLGK
heavy 2: EVQLVESGGGLVQPGRSLRLSCAASGFTFDDYSMHWVRQAPGKGLEWVSGISWNSGSKGYADSVKGRFTISRDNAKNSLYLQMNSLRAEDTALYYCAKYGSGYGKFYHYGLDVWGQGTTVTVSSASTKGPSVFPLAPCSRSTSESTAALGCLVKDYFPEPVTVSWNSGALTSGVHTFPAVLQSSGLYSLSSVVTVPSSSLGTKTYTCNVDHKPSNTKVDKRVESKYGPPCPPCPAPPVAGPSVFLFPPKPKDTLMISRTPEVTCVVVDVSQEDPEVQFNWYVDGVEVHNAKTKPREEQFNSTYRVVSVLTVLHQDWLNGKEYKCKVSNKGLPSSIEKTISKAKGQPREPQVYTLPPSQEEMTKNQVSLTCLVKGFYPSDIAVEWESNGQPENNYKTTPPVLDSDGSFFLYSRLTVDKSRWQEGNVFSCSVMHEALHNRFTQKSLSLSPGK
light: not shown
notes: Anti-BCMA arm from mAb21581, anti-CD3 arm and common light chain from mAb7221G; also called bsAb25441D9; mAb25441D
B2: bsAb25442D bispecific antibody (REGN5459), anti-BCMA x anti-CD3 (bispecific antibody, human IgG4 S228P, kappa)
heavy 1: B1 heavy 1
heavy 2: B1 heavy 2 with K58I, H108Y, L111M
light: not shown
notes: Anti-BCMA arm from mAb21581, anti-CD3 arm and common light chain from mAb7221G20; also called mAb25442D; mAb25442D-A647

What was measured:
[1] = molecular target: T2, cynomolgus CD3 on cells (mfCD3 engineered Jurkat cells, primary cynomolgus CD8+ T cells) (cynomolgus, UniProt Q95LI5 22-198; Q95LI8 22-171); assay: flow cytometry, mfCD3 engineered Jurkat cells, median EC50, n=2
T2 construct: whole, on cells; The engineered Jurkat line expresses cynomolgus CD3 epsilon and delta in place of the human versions (other chains remain human); primary cynomolgus T cells carry the whole cynomolgus complex; also called Jurkat-mfCD3; Mf (Cyno) CD3
Protocol: (§1) Flow cytometric analysis was utilized to determine binding of BCMA×CD3 bispecific antibodies to human and cynomolgus CD3 (Jurkat cells, mfCD3 engineered Jurkat cells, primary human CD8+ and cynomolgus CD8+ T cells). Briefly, 1e05 cells/well were incubated in the presence of FACS wash with block (PBS+1% filtered FBS+5% mouse serum) with a serial dilution of BCMA×CD3 and control antibodies for 30 minutes on ice. After incubation, the cells were washed twice with cold FACS wash (PBS+1% filtered FBS) and bound antibody was detected by incubating with Alexa647-conjugated anti-human secondary antibody on ice for an additional 30 minutes. Wells containing no antibody or secondary only were used as a control. For the detection of monkey and human T cells, a cocktail of human and cynomolgus cross-reactive antibodies to CD4, CD8 and CD16 was added to the anti-human secondary. After incubation, cells were washed, re-suspended in 200 μL cold PBS containing 1% filtered FBS and analyzed by flow cytometry on a BD FACS Canto II. Cells were gated by FSC-H by FSC-A to select singlet events, followed by side and forward scatters to select for live events. For monkey T cells, additional gating on CD8+/CD16-cells was performed.
(§2) EC50 values for FACS binding were calculated using 4-parameter non-linear regression analysis in Prism software.

[2] = molecular target: T2, cynomolgus CD3 on cells (mfCD3 …); assay: flow cytometry, primary cynomolgus CD8+ T cells, median EC50, n=1
Protocol: as §1, §2

[3] = molecular target: T1, human BCMA on the surface of cell lines …; assay: flow cytometry, Alexa647 conjugate on Daudi cells
Protocol: Cells were then washed and fixed for 25 mins at 4° C. using a 50% solution of BD Cytofix (BD, Cat #554655) diluted in PBS. […] After gating for live cells and single cells, the mean fluorescent intensity (MFI) was determined, and MFI values were plotted in Graphpad Prism using a four-parameter logistic equation over a 10-point response curve to calculate EC₅₀s. The zero condition for each dose-response curve is also included in the analysis as a continuation of the two-fold serial dilution and is represented as the lowest dose.

T2 sequence (Q95LI5 22-198, stated change not applied, chain 1 of 2): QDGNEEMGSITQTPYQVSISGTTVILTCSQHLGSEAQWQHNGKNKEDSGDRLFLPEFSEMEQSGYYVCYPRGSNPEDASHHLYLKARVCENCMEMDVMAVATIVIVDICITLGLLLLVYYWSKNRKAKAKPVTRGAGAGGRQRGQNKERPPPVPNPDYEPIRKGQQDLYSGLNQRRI
T2 sequence (Q95LI8 22-171, stated change not applied, chain 2 of 2): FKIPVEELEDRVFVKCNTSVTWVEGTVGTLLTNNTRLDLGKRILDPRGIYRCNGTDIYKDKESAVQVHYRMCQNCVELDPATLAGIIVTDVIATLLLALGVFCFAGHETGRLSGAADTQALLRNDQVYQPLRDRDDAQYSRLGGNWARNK

| Binder | EC50 [1] [nM] | EC50 [2] [nM] | S/N (ratio of mAb25442D-A647 MFI to Isotype-A647 MFI) [3] |
| --- | --- | --- | --- |
| B1 | 15.1 | 46.6 |  |
| B2 |  |  | 3 |
